The target of the assay is AGE-albumin (advanced glycation end-product albumin), Sigma-Aldrich. The assay can be described thus: cell-based or functional assay.

B1: sRAGE (soluble Receptor for Advanced Glycation End-products), cat. RD172116100, Biovendor (receptor)
chain: MRGSHHHHHHGMASAQNITARIGEPLVLKCKGAPKKPPQRLEWKLNTGRTEAWKVLSPQGGGPWDSVARVLPNGSLFLPAVGIQDEGIFRCQAMNRNGKETKSNYRVRVYQIPGKPEIVDSASELTAGVPNKVGTCVSEGSYPAGTLSWHLDGKPLVPNEKGVSVKEQTRRHPETGLFTLQSELMVTPARGGDPRPTFSCSFSPGLPRHRALRTAPIQPRVWEPVPLEEVQLVVEPEGGAVAPGGTVTLTCEVPAQPSPQIHWMKDGVPLPLPPSPVLILPEIGPQDQGTYSCVATHSSHGPQESRAVSISIIEPGEEGPTAGEGFDKVREAEDSPQHM
In the case of B1, the “cell viability of HT22 cells by MTT assay (percent relative to control)” value stood at 101%.

The values above are taken from patent US20200289575A1 (NSAGE, published 2020).
